Series [1] deals with T1, VEGF receptors on HUVEC (VEGFR2/KDR) (Homo sapiens, UniProt P35968 P35968:20-1356). Kind of series: competition; inhibition of 125I-VEGF-165 binding to HUVEC. The protocol: (§1) We next examined whether a group of representative aptamers was able to inhibit the binding of [125]I-VEGF-165 to VEGF receptors expressed on HUVECs. Cells were seeded in 96-well plates at a density of about 10,000 cells/well and maintained until confluent. Culture medium was then replaced with growth factor deficient medium (MEM, 5% heat inactivated fetal bovine serum, 1 µg/ml heparin) for 3–4 hours. Cells were then washed with Dulbecco's phosphate-buffered saline (DPBS) (containing 1 mM CaCl_2, 1 mM MgCl_2 and 0.1% bovine serum albumin) followed by the addition of 100 µl/well of DPBS. [125]I-VEGF-165 ([…]) in the presence of varying amounts of aptamers (0.001–1000 nM) was then added to cells for 2 hours at room temperature. Unbound [125]I-VEGF-165 was then removed by washing with DPBS and the cells were lysed with Triton X-100. Lysates were harvested onto glass fiber filters plates and processed for scintillation counting. Aptamers K1, K10, K17 and K21 were tested. […] Thus, among the VEGFR2 aptamers tested, both receptor binding antagonists and non-antagonists have been identified.

The target of series [2] is T2, VEGFR2 (KDR) extracellular domain/Fc (Homo sapiens, UniProt P35968 P35968:20-764). Kind of series: filter; circularly permuted family member. Conditions: tags: C-terminal human IgG1 Fc fusion with Factor Xa site and His6; R&D Systems; NSO mouse myeloma cells; chain copies: 2 (stated, disulfide-linked homodimer).
Series [3] concerns the target T2, VEGFR2 (KDR) extracellular domain/Fc. Briefly: filter. Conditions: tags: C-terminal human IgG1 Fc fusion with Factor Xa site and His6; R&D Systems; NSO mouse myeloma cells; chain copies: 2 (stated, disulfide-linked homodimer).
Series [4] has the same target. Kind of series: filter; Table 2 prints CCACGGC where listing has ccaccgc. To be noted: tags: C-terminal human IgG1 Fc fusion with Factor Xa site and His6; R&D Systems; NSO mouse myeloma cells; chain copies: 2 (stated, disulfide-linked homodimer).
For series [5] the target is unchanged. Kind of series: filter; 30N clone. To be noted: tags: C-terminal human IgG1 Fc fusion with Factor Xa site and His6; R&D Systems; NSO mouse myeloma cells; chain copies: 2 (stated, disulfide-linked homodimer).
For series [6], the target named is T1, VEGF receptors on HUVEC (VEGFR2/KDR). Briefly: competition; inhibition of 125I-VEGF-165 binding to HUVEC, DPBS with Ca, Mg, room temperature. The method, then:
as §1

The values that follow come from patent publication US6762290, “High affinity vascular endothelial growth factor (VEGF) receptor nucleic acid ligands and inhibitors” (Gilead Sciences, Inc.).

T2 sequence (P35968 20-764, one chain of several): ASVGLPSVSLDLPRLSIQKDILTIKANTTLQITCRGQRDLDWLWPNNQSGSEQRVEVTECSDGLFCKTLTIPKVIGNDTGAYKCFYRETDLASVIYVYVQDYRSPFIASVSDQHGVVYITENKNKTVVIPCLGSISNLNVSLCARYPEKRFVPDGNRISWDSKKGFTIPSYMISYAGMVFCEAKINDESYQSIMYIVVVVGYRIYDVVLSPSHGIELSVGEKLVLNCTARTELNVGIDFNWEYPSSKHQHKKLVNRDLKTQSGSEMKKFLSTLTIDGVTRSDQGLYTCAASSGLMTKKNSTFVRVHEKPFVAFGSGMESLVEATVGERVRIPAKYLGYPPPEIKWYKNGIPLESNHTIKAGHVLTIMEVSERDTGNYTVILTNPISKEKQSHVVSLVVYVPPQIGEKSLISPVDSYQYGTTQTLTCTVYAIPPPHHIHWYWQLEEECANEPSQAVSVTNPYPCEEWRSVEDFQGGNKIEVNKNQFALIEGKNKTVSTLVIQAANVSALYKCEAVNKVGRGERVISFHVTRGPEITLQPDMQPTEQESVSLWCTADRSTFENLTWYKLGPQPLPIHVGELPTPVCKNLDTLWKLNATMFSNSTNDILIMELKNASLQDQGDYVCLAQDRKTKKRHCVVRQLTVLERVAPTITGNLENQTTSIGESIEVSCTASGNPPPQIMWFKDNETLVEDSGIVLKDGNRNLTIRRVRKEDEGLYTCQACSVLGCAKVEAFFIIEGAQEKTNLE
T1 sequence (P35968 20-1356, one chain of several): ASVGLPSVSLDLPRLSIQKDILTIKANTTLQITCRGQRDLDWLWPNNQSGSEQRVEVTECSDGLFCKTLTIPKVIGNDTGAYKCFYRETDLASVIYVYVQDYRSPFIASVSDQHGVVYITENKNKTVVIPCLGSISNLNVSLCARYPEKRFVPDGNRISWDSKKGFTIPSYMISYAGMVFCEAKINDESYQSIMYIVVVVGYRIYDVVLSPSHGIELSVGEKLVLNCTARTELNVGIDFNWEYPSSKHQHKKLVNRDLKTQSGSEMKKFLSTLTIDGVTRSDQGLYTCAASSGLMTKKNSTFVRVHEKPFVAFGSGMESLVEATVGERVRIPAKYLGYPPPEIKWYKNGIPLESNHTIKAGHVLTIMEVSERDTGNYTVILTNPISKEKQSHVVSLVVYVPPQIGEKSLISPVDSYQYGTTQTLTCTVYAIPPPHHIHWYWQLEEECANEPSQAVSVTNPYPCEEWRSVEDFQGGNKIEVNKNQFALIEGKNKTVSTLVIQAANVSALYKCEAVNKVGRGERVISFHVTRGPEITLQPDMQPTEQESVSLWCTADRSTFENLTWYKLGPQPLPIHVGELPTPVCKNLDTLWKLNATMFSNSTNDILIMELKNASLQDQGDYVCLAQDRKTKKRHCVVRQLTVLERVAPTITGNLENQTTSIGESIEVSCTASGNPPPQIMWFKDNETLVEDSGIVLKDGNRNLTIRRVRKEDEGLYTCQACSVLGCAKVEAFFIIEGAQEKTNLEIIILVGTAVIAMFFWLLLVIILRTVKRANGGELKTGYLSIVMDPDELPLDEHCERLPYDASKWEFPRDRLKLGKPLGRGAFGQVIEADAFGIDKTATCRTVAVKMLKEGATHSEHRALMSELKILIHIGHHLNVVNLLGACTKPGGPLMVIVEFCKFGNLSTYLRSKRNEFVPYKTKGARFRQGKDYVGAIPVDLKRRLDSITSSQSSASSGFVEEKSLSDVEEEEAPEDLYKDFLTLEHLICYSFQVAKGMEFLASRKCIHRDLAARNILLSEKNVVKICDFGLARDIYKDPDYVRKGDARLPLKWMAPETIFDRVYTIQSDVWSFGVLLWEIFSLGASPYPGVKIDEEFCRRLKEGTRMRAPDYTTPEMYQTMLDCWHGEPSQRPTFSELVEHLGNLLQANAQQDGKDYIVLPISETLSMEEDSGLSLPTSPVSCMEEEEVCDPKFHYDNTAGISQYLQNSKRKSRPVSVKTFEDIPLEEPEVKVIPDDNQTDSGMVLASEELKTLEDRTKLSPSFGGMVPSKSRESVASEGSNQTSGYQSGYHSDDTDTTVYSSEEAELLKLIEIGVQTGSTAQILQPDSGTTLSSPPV

B1: K21 (ssRNA)
RNA: GGGAGGACGAUGCGGAUCAUACCGAAGAGACACGGGGCCACCAUAUCCUCACCCCCAGACGACUCGCCCGA
modifications: 2'-F pyrimidines
Molecule B1 yielded an IC50 in series [1] of 79000 pM. The molecule also showed a Kd in series [2] of 260 pM.

B2: K12 (ssRNA)
RNA: GGGAGGACGAUGCGGAAACGGAAGAAUUGGAGACCGACGUCGACCUCUUGGCCCCAGACGACUCGCCCGA
modifications: 2'-F pyrimidines
B2 gave a Kd in series [3] of 15400 pM.

B3: K5 (ssRNA)
RNA: GGGAGGACGAUGCGGCAUGGGGCCUGACUGGAUCAUACCACCGCUUCCUCUGGUCAGACGACUCGCCCGA
modifications: 2'-F pyrimidines
In the case of B3, in series [3], binding was put at a Kd of 440 pM.

B4: K3 (ssRNA)
RNA: GGGAGGACGAUGCGGCAUGGGGCCUGACUGGAUCAUACCACCGCUUUCUCUGGUCAGACGACUCGCCCGA
modifications: 2'-F pyrimidines
With B4, the Kd in series [4] was 510 pM.

B5: K1 (ssRNA)
RNA: GGGAGGACGAUGCGGGGCCUGUUUGGAUCAUACCGAUCGUCAAUCCAAGAGUGGUCAGACGACUCGCCCGA
modifications: 2'-F pyrimidines
As to B5, in series [3], the Kd turned out to be 70 pM.

B6: K2 (ssRNA)
RNA: GGGAGGACGAUGCGGGGCCUGUUUGGAUCAUACCGAUCGUCAAUCCUAAAGUGGUCAGACGACUCGCCCGA
modifications: 2'-F pyrimidines
B6: in series [3], the Kd is 270 pM.

B7: K23 (ssRNA)
RNA: GGGAGGACGAUGCGGACACACACAUCAUAAACAUUGUCCGUUGACCAGACGACUCGCCCGA
modifications: 2'-F pyrimidines
On to B7, for which, in series [5], the Kd was 2200 pM.

B8: K13 (ssRNA)
RNA: GGGAGGACGAUGCGGAACCAAUUAAGUCUGGCAAAUCUCUCUGUGCAGACGACUCGCCCGA
modifications: 2'-F pyrimidines
In series [5], B8 returned a Kd of 750 pM.

B9: K7 (ssRNA)
RNA: GGGAGGACGAUGCGGACGAUAACACAGGGCCUGCUUGGAUCACACUGAUUGCGCCCAGACGACUCGCCCGA
modifications: 2'-F pyrimidines
In the case of B9, in series [3], the Kd is 460 pM.

B10: K4 (ssRNA)
RNA: GGGAGGACGAUGCGGAGGUGCUCCUUUGGAACUUCGUAUUUGUCUGCUCCUGGUCAGACGACUCGCCCGA
modifications: 2'-F pyrimidines
B10: the Kd in series [3] was 280 pM.

B11: K10 (ssRNA)
RNA: GGGAGGACGAUGCGGUUGAUCGAGGUUCUAAGGCCUAUUUCCUGACUUUCUCCCCCAGACGACUCGCCCGA
modifications: 2'-F pyrimidines
B11: in series [3], the Kd is 470 pM. The same molecule had an IC50 in series [6] of 1000 pM.

B12: K11 (ssRNA)
RNA: GGGAGGACGAUGCGGUUGAUCGAGGUUCUAAAGCCUAUUUCCUGACUUUCUCCCCCAGACGACUCGCCCGA
modifications: 2'-F pyrimidines
As for B12, the Kd in series [3] worked out at 610 pM.

As usually defined, the IC50 is the point on the concentration scale where inhibition reaches its midpoint. Low values mean higher potency, high ones lower potency. Usually Kd stands for the equilibrium constant for the complex coming apart. A low value points to higher affinity.
